Experimental data: publication PMC11193018 (The Journal of Biological Chemistry, 2024)
Blank lines part the entries; values can stand above or below the molecule they belong to.

Legend:
[1] = biological target: Methanocaldococcus jannaschii GINS, wild type, non-His-tagged (Methanocaldococcus jannaschii); experiment: SEC
[2] = biological target: MjGINS domain A (residues 21-115), as crystallized (Methanocaldococcus jannaschii); experiment: crystal structure
[3] = biological target: MjGINS-M, dimeric mutant of MjGINS (K58A, K74A, K78A, I101A, I105A) (Methanocaldococcus jannaschii); experiment: SEC
crystal structure = biological target: the molecule itself; experiment: crystal structure
SEC = biological target: the molecule itself; experiment: SEC

stoichiometry N [1]: 4
Molecule: Methanocaldococcus jannaschii GINS, wild type, non-His-tagged (natural protein)

stoichiometry N [2]: 4
Molecule: MjGINS domain A (residues 21-115), as crystallized (domain or fragment)

stoichiometry N [3]: 2
Molecule: MjGINS-M, dimeric mutant of MjGINS (K58A, K74A, K78A, I101A, I105A) (natural protein)

The remaining lines, values behind:

B1: Methanocaldococcus jannaschii RecJ2, tag-free, for crystallization (enzyme)
chain: MMEKLKEIEKVTKAIKEKILNHYGYIRVITHHDTDGLSSGGILAKMLMRTNKLFHLTVVEHLSKEVIEKLAKENEVNKPLFIFADMGSGQIEEIIKHNFNAIILDHHPPVIKDSFINENIIQLNPHIFGVDGSREITASGVCYLVAREFGYYDLSVLAIVGIIGDMQYNPLLGLNKFIVNEAREYRYVKIMNDIVYNIYDVEIYKAIAYCTKPYIPDLASEGKAFKFLKDIGIDPNKKQLDDTDKKKLLSAIIFKYPKIENLLIDRYLIEHKVRDAFLLSEMLNAVGRNGLFAVGIGICLEDDECIKIGNQILWEYKKNLINELKSVKLKKLNNIYYFEGKKGMIGIIASILVDDKPVIGYHIEGDIAKFSARGNRDLVNRGLNLSVAMAVAKEFGGNGGGHDVASGAVVSKDKVQEFLKRVDEIIGEQLRR
stoichiometry N (crystal structure): 2

B2: Methanocaldococcus jannaschii RecJ2, wild type, His-tagged (enzyme)
chain: B1 chain
stoichiometry N (SEC): 2
